Laboratory results reported in patent US20130035289A1, “PHARMACEUTICAL COMPOSITION FOR TREATMENT OF THROMBOSIS-RELATED DISEASES COMPRISING A FRAGMENT OF PROLACTIN (PRL)-GROWTH HORMONE (GH)-PLACENTAL LACTOGEN (PL)-FAMILY PROTEIN” (UNIVERSITE DE LIEGE, priority 2010, published 2013).

How the values were obtained:
PAI-1 [1] = target: T1, PAI-1 (Mus musculus, UniProt P22777); assay: Murine thromboembolism model (tPA/thromboplastin); assay type: in vivo; settings: recombinant 16K PRL 1 mg/kg i.v. 5 min before t-PA/thromboplastin; survival at 15 min; control group 73%; p=0.003
T1 construct: from tissue; host or cells: BalbC Njrj mice, in vivo (blood)
T1 sequence (P22777 23-402): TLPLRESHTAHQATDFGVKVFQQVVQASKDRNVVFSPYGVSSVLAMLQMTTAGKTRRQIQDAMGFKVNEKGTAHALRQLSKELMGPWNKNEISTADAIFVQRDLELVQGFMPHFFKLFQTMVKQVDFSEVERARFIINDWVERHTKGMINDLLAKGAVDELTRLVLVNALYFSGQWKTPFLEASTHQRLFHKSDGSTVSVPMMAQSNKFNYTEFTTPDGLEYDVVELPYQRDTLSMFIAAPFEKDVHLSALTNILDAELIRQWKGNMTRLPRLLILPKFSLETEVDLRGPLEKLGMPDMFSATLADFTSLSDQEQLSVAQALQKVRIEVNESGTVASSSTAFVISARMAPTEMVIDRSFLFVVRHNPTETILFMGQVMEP
Procedure: BalbC Njrj Mice were used and anesthetised with ketamine/xylazine throughout the whole experiment. Recombinant 16K PRL and adenovirus vectors 16K-Ad and Null-Ad were produced as described above. The animal experiment protocol used was approved by the Institutional Ethics Committee of the University of Liege.
Recombinant 16K PRL (1 mg/kg) or POPRL 7-12 (10 mg/kg) were administrated via the vein to BalbC Njrj mice of approximately 15-18 g. Five minutes after the injection, a suboptimal concentration of t-PA (0.1 mg/kg) was injected immediately followed by i.v. injection of thromboplastin (3.3 μg/kg) to evoke thromboembolism. Mice were evaluated after 15 min for survival. For experiment with adenovirus vectors, mice were injected into the tail vein with 10^9 pfu of 16K hPRL adenovirus (16K-Ad) and their corresponding control (Null-Ad) 5 days before the injection a suboptimal concentration of t-PA (0.1 mg/kg) injected immediately followed by i.v. injection of thromboplastin (3.3 μg/kg).
The fisher test was used to determine the significance of the differences in the mortality assays.

NF-κB = NF-κB p65 DNA-binding activity in HUVECs; assay type: cell-based, human; settings: 16K PRL 50 nM 1 h
Procedure: HUVECs were incubated for 2 h with 16K PRL and immunostained for uPA (red) or 16K PRL (green) and nuclei (DAPI, blue). Bottom panels: co-localization of PAI-1 and 16K PRL. To visualize added PAI-1 and not endogenous PAI-1, cells were incubated with His-tag PAI-1 and 16K PRL and stained for PAI-1 (red), 16K PRL (green), and nuclei (DAPI, blue). (B) Schematic outline of the proximity ligation assay (PLA) strategy showing primary antibody from different species for uPA and 16K PRL. Juxtaposition of secondary, oligonucleotide ligated antibodies allows a rolling circle amplification detected by a cy3-probe. (C) Detection of uPA/16K PRL complexes (red spots) on HUVECs by PLA. […]
HUVECs were pre-treated with a blocking uPAR Ab 3 μg/ml (R&D system) or control IgG (SantaCruz) for 1 h and then incubated for 1 h with 16K PRL (50 nM). The p65 DNA-binding activity of NF-κB was quantified by ELISA (EZ Transcription Factor kit NF-κB p65 (Pierce)) according to the manufacturer's instructions on total protein extracts. Protein concentrations were determined by the […] using the BCA protein assay reagent (Pierce). NF-κB binding to the target oligonucleotide was detected by incubation with primary antibody specific for the activated form of p65, visualized by anti-IgG horseradish peroxidase conjugate and developing solution. Chemiluminescence was quantified with a luminometer.

PAI-1 [2] = target: T2, PAI-1 (Homo sapiens, UniProt P05121); assay: Immunofluorescence staining on HUVEC, co-localization with His-tag PAI-1; assay type: cell-based; settings: HUVECs, PAI-1 added to the medium with 16K PRL
T2 construct: gift of Pr; P. Declerck
T2 sequence (P05121 24-402): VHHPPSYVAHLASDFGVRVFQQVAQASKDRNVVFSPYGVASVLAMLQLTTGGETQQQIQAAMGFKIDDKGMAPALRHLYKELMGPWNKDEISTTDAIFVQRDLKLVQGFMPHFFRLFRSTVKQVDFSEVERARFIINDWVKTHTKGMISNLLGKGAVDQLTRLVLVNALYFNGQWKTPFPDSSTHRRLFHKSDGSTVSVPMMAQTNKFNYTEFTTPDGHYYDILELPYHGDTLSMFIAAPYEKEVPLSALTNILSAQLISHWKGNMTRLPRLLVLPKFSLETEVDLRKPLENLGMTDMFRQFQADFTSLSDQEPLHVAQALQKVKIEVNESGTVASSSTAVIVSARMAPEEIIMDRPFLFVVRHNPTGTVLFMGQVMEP
Procedure: HUVECs were grown to 70% confluence on gelatin-coated 35-mm dishes. After incubation for 3 h with 14K GH (160 ng/ml) or 16K PRL (160 ng/ml), the cells were washed with PBS at room temperature and incubated for 1 h at room temperature under non-permeabilization conditions with mouse anti uPA (American Diagnostica INC) diluted 1/100, rabbit anti prolactin (Dako) diluted 1/100, or rabbit anti human GH (home made) diluted 1/100. Endothelial cells were washed in PBS and incubated with FITC horse anti mouse (Vector Laboratory) and Texas red goat anti rabbit antibodies (Jackson Laboratory). For PAI-1 staining, the cells were incubated simultaneously with Histag PAI-1 at 800 uM and 16K PRL or 14K GH. […] Cryostat tumor sections (5 μm thick) were fixed in acetone at −20° C. and in 100% methanol at 4° C. and then incubated with the primary antibodies, rat monoclonal anti PECAM-1, and rabbit polyclonal anti-prolactin (DAKO) for 1 hour at room temperature. The slides were washed and incubated with a Cy3 goat anti-rat and an FITC goat anti-rabbit antibody. After 3 washes in PBS for 10 min, the slides were covered with coverslips in mounting medium (Victor Laboratories Inc.) and analyzed by fluorescence microscopy.

uPA = target: T3, uPA (Homo sapiens, UniProt P00749+P05121); assay: In situ proximity ligation assay (PLA) on HUVECs; assay type: cell-based
T3 construct: endogenous in cells; host or cells: HUVEC
Procedure: HUVECs were grown on gelatin-coated glass coverslips. After incubation for 2 h with 14K GH (50 nM) or 16K PRL (50 nM), the cells were washed with PBS at room temperature and fixed with 4% paraformaldehyde for 15 min, blocked, permeabilized and incubated overnight with mouse anti uPA (American Diagnostica Inc. Greenwich, Conn.) diluted 1/100 and rabbit anti prolactin (Dako) diluted 1/100, or rabbit anti human GH (home made) diluted 1/100. PLA was performed according to the manufacturer's instructions using the Duolink Detection Kit 563 (Olink Bioscience) with anti-mouse MINUS and anti-rabbit PLUS PLA probes. DAPI nucleus stain was added to the mounting media and the slides were analyzed by fluorescence microscopy.

B1: 16K hPRL: 16K N-terminal human prolactin fragment, recombinant, produced and purified from E. coli (protein)
chain: LPICPGGAARCQVTLRDLFDRAVVLSHYIHNLSSEMFSEFDKRYTHGRGFITKAINSCHTSSLATPEDKEQAQQMNQKDFLSLIVSILRSWNEPLYHLVTEVRGMQEAPEAILSKAVEIEEQTKRLLEGMELIVSQVHP
In the case of B1, the mortality (PAI-1 [1]) is reported as 32%, the “16K PRL-induced NF-κB signaling” value (NF-κB; blocking uPAR antibody pre-treatment 1 h) is reported as “disrupts” and the “16K PRL response (NF-κB activity), requirement of uPA” value (NF-κB; pre-treatment with ATF of uPA) is reported as “required”. The “co-localization with PAI-1” value (PAI-1 [2]) was “co-localization of 16K PRL and PAI-1 was observed” and the “distance between uPA and 16K PRL” value (uPA) was “less than 40 nm”.
